Data on seven molecules can be found in patent US8114968.

In the assay the target is human MMP-12 (human) (UniProt P39900). Put plainly: cell-based or functional assay.
Sequence of human MMP-12 (human) (P39900 106-470 limits assumed): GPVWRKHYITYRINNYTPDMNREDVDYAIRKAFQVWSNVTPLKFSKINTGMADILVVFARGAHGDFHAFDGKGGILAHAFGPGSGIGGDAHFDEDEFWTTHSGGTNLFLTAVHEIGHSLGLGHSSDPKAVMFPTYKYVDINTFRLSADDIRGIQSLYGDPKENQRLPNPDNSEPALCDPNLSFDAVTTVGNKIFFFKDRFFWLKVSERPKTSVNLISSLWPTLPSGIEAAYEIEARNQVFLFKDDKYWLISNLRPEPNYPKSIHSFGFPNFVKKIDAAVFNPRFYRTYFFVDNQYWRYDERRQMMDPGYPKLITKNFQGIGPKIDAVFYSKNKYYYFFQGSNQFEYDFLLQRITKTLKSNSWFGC

B1: 539B-M0009-H08 (Fab, V domains shown)
VH: EVQLLESGGGLVQPGGSLRLSCAASGFTFSMYWMFWVRQAPGKGLEWVSSISSSGGHTFYADSVKGRFTISRDNSKNTLYLQMNSLRAEDTAVYYCARGSYSGYDPFDYWGRGTLVTVSS
VL: QYELTQPPALSVAPGETATITCGGDKIGRKSVNWYQQKAGQAPVLVIFYDNDRPSGITGRFSGSNSGNSATLTISRVEAGDEADFYCQVWGPNDFPLFGGGTKLTVL
For B1, the % of activity left with 100 nM in assay 04 Oct. 2006 turned out to be 103%.

B2: 539B-M0042-B06 (Fab, V domains shown)
VH: EVQLLESGGGLVQPGGSLRLSCAASGFTFSFYHMEWVRQAPGKGLEWVSSISPSGGHTDYADSVKGRFTISRDNSKNTLYLQMNSLRAEDTAVYYCASLLSGTWGQGTLVTVSS
VL: DIQMTQSPDTLSLSPGERATLSCRASQTISSTFLAWYQQKPGQAPRLLIYGASTRAAGIPDRFIGSGSGTDFTLTISSLEPEDSAVYYCQQYDRSPTFGGGTKVEIK
Regarding B2, the % of activity left with 100 nM in assay 04 Oct. 2006 came to 53.6%.

B3: 539B-M0041-G01 (Fab, V domains shown)
VH: EVQLLESGGGLVQPGGSLRLSCAASGFTFSYYPMAWVRQAPGKGLEWVSYISSSGGLTTYADSVKGRFTISRDNSKNTLYLQMNSLRAEDTAVYYCARSPTYYDFWSGYWAGIFDYWGQGTLVTVSS
VL: DIQMTQSPSSLSASVGDRVTITCRASQSISYFLNWYQQKPGKAPKLLIYAASTLQGGVPSRFRGSGSGTDFTLTISSLQPEDFATYYCQHSYSTPPITFGPGTKVDIK
B3: the % of activity left with 100 nM in assay 04 Oct. 2006 was 109% and the % of activity left with 100 nM in assay 29 Aug. 2006 was determined as 84.8%.

B4: 539B-M0016-D01 (Fab, V domains shown)
VH: EVQLLESGGGLVQPGGSLRLSCAASGFTFSEYNMPWVRQAPGKGLEWVSYIYSSGGSTEYADSVKGRFTISRDNSKNTLYLQMNSLRAEDMAVYYCAKDLWEDSSTWGYGMDVWGQGTTVTVSS
VL: QSELTQPPSVSVSPGQTATITCSGDVSVHKSFCWYQQRPGQSPVLVIYQIDKRPSGVPERFSGSISGTTATLTISGTQATDEADYYCQGWDSTTYYVFGTGTKVTVL
Take B4: the % of activity left with 100 nM in assay 04 Oct. 2006 stood at 48.1%.

B5: 539B-M0034-C04 (Fab, V domains shown)
VH: EVQLLESGGGLVQPGGSLRLSCAASGFTFSEYPMYWVRQAPGKGLEWVSVIYPSGGWTDYADSVKGRFTISRDNSKNTLYLQMNSLRAEDTAVYYCARMAVTGGSRFDYWGQGTLVTVSS
VL: DIQMTQSPSSLSASVGDRVSITCRASQNINSYLNWYQQKVGKAPKLLIFGAYTLHSGAPSRFSGSGSGTDFTLTISSLQPEDVATYYCQQTYTSYSFAQGTKLEIK
As for B5, the % of activity left with 100 nM in assay 04 Oct. 2006 amounted to 38.6% and the % of activity left with 100 nM in assay 29 Aug. 2006 is 39.1%.

B6: 539B-M0041-B05 (Fab, V domains shown)
VH: B5 VH
VL: B5 VL
Turning to B6, the % of activity left with 100 nM in assay 04 Oct. 2006 stood at 35.1%.

B7: 539B-M0039-F01 (Fab, V domains shown)
VH: EVQLLESGGGLVQPGGSLRLSCAASGFTFSRYWMDWVRQAPGKGLEWVSGIYPSGGYTLYADSVKGRFTISRDNSKNTLYLQMNSLRAEDTAVYYCARHGDYMDVWGKGTTVTVSS
VL: NIQMTQSPSSVSASVGDRVTITCRASQDINYWLAWYQQKPGKAPKLLIYAASSLQSGVPSRFSGSGSGTDFTLTISSLQPEDFATYYCQRANSFPYTFGQGTKLEIK
Regarding B7, the % of activity left with 100 nM in assay 04 Oct. 2006 was 69.4% and the % of activity left with 100 nM in assay 29 Aug. 2006 turned out to be 57.8%.
